Laboratory results taken from US20250018014A1, “METHOD FOR TREATING AND/OR PREVENTING REGNASE-1-RELATED DISEASE” (OSAKA UNIVERSITY, priority 2018, published 2025).
Positions of bridges follow the written chain, without caps; N, C: chain ends. Non-standard residues stand in square brackets, D forms with d. *: point of attachment. Pyrrolidide = C1CCN(*)C1; dNMeA = CN[C@H](C)C(=O)O

T1: full-length human Regnase-1 with a FLAG tag on the N-terminal side and a biotin ligase BirA recognition … (human, UniProt Q5D1E8 1-599, biotinylated at the BirA recognition sequence when required)
T1 sequence: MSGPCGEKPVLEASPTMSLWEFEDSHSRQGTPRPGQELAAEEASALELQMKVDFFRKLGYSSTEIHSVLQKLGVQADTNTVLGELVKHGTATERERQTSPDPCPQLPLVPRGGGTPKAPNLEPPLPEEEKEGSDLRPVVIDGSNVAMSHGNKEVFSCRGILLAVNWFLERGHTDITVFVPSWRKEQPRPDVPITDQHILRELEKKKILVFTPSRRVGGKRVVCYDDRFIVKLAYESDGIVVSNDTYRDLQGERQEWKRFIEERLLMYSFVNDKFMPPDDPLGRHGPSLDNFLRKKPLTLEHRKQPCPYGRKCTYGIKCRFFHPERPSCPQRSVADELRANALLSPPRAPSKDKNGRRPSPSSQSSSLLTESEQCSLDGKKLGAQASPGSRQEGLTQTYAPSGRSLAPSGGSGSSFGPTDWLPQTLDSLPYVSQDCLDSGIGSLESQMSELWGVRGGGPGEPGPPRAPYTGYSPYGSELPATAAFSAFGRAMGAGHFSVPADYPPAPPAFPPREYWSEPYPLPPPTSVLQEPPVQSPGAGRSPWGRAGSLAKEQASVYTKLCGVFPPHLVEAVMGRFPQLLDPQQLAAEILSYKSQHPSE

T2: C-terminal domain-deleted human Regnase-1 (amino acids 1 to 546) with N-terminal FLAG tag and C-terminal BirA … (human, UniProt Q5D1E8 1-546)
T2 sequence: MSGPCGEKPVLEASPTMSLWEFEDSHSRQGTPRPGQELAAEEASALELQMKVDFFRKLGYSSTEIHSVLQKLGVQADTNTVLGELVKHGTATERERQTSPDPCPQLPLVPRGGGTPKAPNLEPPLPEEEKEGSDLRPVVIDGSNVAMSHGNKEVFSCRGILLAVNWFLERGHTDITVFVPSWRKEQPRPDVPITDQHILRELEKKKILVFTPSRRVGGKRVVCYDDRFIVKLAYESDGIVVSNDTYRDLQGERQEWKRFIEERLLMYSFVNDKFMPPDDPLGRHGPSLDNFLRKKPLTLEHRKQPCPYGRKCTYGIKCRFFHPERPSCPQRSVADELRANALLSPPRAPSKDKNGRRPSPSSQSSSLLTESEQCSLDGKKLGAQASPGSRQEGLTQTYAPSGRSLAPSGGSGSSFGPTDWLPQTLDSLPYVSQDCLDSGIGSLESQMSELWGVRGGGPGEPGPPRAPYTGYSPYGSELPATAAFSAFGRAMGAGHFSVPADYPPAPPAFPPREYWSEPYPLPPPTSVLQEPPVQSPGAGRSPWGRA

T3: C-terminal human Regnase-1 (amino acids 301 to 599) with N-terminal FLAG tag and C-terminal BirA recognition … (human, UniProt Q5D1E8 301-599)
T3 sequence: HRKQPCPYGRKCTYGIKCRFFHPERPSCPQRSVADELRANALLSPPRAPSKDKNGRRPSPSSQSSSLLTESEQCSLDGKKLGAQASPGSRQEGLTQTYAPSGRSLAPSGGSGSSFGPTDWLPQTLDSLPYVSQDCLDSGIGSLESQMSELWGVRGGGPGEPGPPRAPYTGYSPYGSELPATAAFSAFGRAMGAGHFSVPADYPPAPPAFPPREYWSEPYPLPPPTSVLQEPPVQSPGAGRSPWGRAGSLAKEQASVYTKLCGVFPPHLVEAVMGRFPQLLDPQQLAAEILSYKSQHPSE

B1: PP13 (peptide)
peptide: XRFRQWKWVYPD
HELM: PEPTIDE1{[meA].R.F.R.Q.W.K.W.V.Y.P.D.[C1CCN([*:1])C1]}$PEPTIDE1,PEPTIDE1,1:R1-12:R3$$$V2.0
SMILES: CC(C)[C@@H]1NC(=O)[C@H](Cc2c[nH]c3ccccc23)NC(=O)[C@H](CCCCN)NC(=O)[C@H](Cc2c[nH]c3ccccc23)NC(=O)[C@H](CCC(N)=O)NC(=O)[C@H](CCCNC(=N)N)NC(=O)[C@H](Cc2ccccc2)NC(=O)[C@H](CCCNC(=N)N)NC(=O)[C@H](C)N(C)C(=O)C[C@@H](C(=O)N2CCCC2)NC(=O)[C@@H]2CCCN2C(=O)[C@H](Cc2ccc(O)cc2)NC1=O
B2: PP8 (peptide)
peptide: XSKYWNSWYNIWD
HELM: PEPTIDE1{[C[C@H](C(=O)[*:2])N(C)[*:1]].S.K.Y.W.N.S.W.Y.N.I.W.D.[C1CCN([*:1])C1]}$PEPTIDE1,PEPTIDE1,1:R1-13:R3$$$V2.0
SMILES: CC[C@H](C)[C@@H]1NC(=O)[C@H](CC(N)=O)NC(=O)[C@H](Cc2ccc(O)cc2)NC(=O)[C@H](Cc2c[nH]c3ccccc23)NC(=O)[C@H](CO)NC(=O)[C@H](CC(N)=O)NC(=O)[C@H](Cc2c[nH]c3ccccc23)NC(=O)[C@H](Cc2ccc(O)cc2)NC(=O)[C@H](CCCCN)NC(=O)[C@H](CO)NC(=O)[C@@H](C)N(C)C(=O)C[C@@H](C(=O)N2CCCC2)NC(=O)[C@H](Cc2c[nH]c3ccccc23)NC1=O
B3: PP9 (peptide)
peptide: [dNMeA]TYGHSSWYKIWD-Pyrrolidide
modifications: lactam N-13
B4: PP11 (peptide)
peptide: XKFAQFRWIYPD
HELM: PEPTIDE1{[meA].K.F.A.Q.F.R.W.I.Y.P.D.[C1CCN([*:1])C1]}$PEPTIDE1,PEPTIDE1,1:R1-12:R3$$$V2.0
SMILES: CC[C@H](C)[C@@H]1NC(=O)[C@H](Cc2c[nH]c3ccccc23)NC(=O)[C@H](CCCNC(=N)N)NC(=O)[C@H](Cc2ccccc2)NC(=O)[C@H](CCC(N)=O)NC(=O)[C@H](C)NC(=O)[C@H](Cc2ccccc2)NC(=O)[C@H](CCCCN)NC(=O)[C@H](C)N(C)C(=O)C[C@@H](C(=O)N2CCCC2)NC(=O)[C@@H]2CCCN2C(=O)[C@H](Cc2ccc(O)cc2)NC1=O
B5: PP12 (peptide)
peptide: XRYAVYQWIYPD
HELM: PEPTIDE1{[meA].R.Y.A.V.Y.Q.W.I.Y.P.D.[C1CCN([*:1])C1]}$PEPTIDE1,PEPTIDE1,1:R1-12:R3$$$V2.0
SMILES: CC[C@H](C)[C@@H]1NC(=O)[C@H](Cc2c[nH]c3ccccc23)NC(=O)[C@H](CCC(N)=O)NC(=O)[C@H](Cc2ccc(O)cc2)NC(=O)[C@H](C(C)C)NC(=O)[C@H](C)NC(=O)[C@H](Cc2ccc(O)cc2)NC(=O)[C@H](CCCNC(=N)N)NC(=O)[C@H](C)N(C)C(=O)C[C@@H](C(=O)N2CCCC2)NC(=O)[C@@H]2CCCN2C(=O)[C@H](Cc2ccc(O)cc2)NC1=O
B6: PP7 (peptide)
peptide: XNFNSAYYRAIWD
HELM: PEPTIDE1{[meA].N.F.N.S.A.Y.Y.R.A.I.W.D.[C1CCN([*:1])C1]}$PEPTIDE1,PEPTIDE1,1:R1-13:R3$$$V2.0
SMILES: CC[C@H](C)[C@@H]1NC(=O)[C@H](C)NC(=O)[C@H](CCCNC(=N)N)NC(=O)[C@H](Cc2ccc(O)cc2)NC(=O)[C@H](Cc2ccc(O)cc2)NC(=O)[C@H](C)NC(=O)[C@H](CO)NC(=O)[C@H](CC(N)=O)NC(=O)[C@H](Cc2ccccc2)NC(=O)[C@H](CC(N)=O)NC(=O)[C@H](C)N(C)C(=O)C[C@@H](C(=O)N2CCCC2)NC(=O)[C@H](Cc2c[nH]c3ccccc23)NC1=O
B7: PP10 (peptide)
peptide: XNYQSWYYRSIWD
HELM: PEPTIDE1{[meA].N.Y.Q.S.W.Y.Y.R.S.I.W.D.[C1CCN([*:1])C1]}$PEPTIDE1,PEPTIDE1,1:R1-13:R3$$$V2.0
SMILES: CC[C@H](C)[C@@H]1NC(=O)[C@H](CO)NC(=O)[C@H](CCCNC(=N)N)NC(=O)[C@H](Cc2ccc(O)cc2)NC(=O)[C@H](Cc2ccc(O)cc2)NC(=O)[C@H](Cc2c[nH]c3ccccc23)NC(=O)[C@H](CO)NC(=O)[C@H](CCC(N)=O)NC(=O)[C@H](Cc2ccc(O)cc2)NC(=O)[C@H](CC(N)=O)NC(=O)[C@H](C)N(C)C(=O)C[C@@H](C(=O)N2CCCC2)NC(=O)[C@H](Cc2c[nH]c3ccccc23)NC1=O

biological target: T1, full-length human Regnase-1 with a FLAG …; assay: cell-based or functional assay

50% inhibition concentration, Regnase-1 phosphorylation by TBK1 (AlphaScreen)	Binder
8.4 µM	B1
2.9 µM	B2
4.2 µM	B3
29.1 µM	B4
12.7 µM	B5
2.2 µM	B6
0.2 µM	B7

biological target: T2, C-terminal domain-deleted human …; assay: cell-based or functional assay

50% inhibition concentration, Regnase-1 phosphorylation by TBK1 (AlphaScreen)	Binder
17.7 µM	B1
5.5 µM	B2
6.6 µM	B3
55.6 µM	B4
22.5 µM	B5
4.7 µM	B6
0.2 µM	B7

biological target: T3, C-terminal human Regnase-1 (amino acids …); assay: cell-based or functional assay

50% inhibition concentration, Regnase-1 phosphorylation by TBK1 (AlphaScreen)	Binder
18 µM	B1
6 µM	B2
7.9 µM	B3
> 62.1 µM	B4
19.6 µM	B5
4.6 µM	B6
0.4 µM	B7

biological target: T1, full-length human Regnase-1 with a FLAG …; assay: cell-based or functional assay; remark: another data set of the same source

50% inhibition concentration, Regnase-1 phosphorylation by IKKβ (AlphaScreen)	Binder
3.6 µM	B1
1.4 µM	B2
2.7 µM	B3
22.3 µM	B4
6.8 µM	B5
0.8 µM	B6
0.5 µM	B7

biological target: T2, C-terminal domain-deleted human …; assay: cell-based or functional assay; remark: another data set of the same source

50% inhibition concentration, Regnase-1 phosphorylation by IKKβ (AlphaScreen)	Binder
43.2 µM	B1
7.8 µM	B2
6.4 µM	B3
> 62.1 µM	B4
27 µM	B5
4.5 µM	B6
2.6 µM	B7

biological target: T3, C-terminal human Regnase-1 (amino acids …); assay: cell-based or functional assay; remark: another data set of the same source

50% inhibition concentration, Regnase-1 phosphorylation by IKKβ (AlphaScreen)	Binder
23.2 µM	B1
5.7 µM	B2
6.2 µM	B3
> 62.1 µM	B4
20.7 µM	B5
3 µM	B6
1.8 µM	B7
